Assay: soluble on expression in E. coli; label from the status in PepcDB or PDB records

Sequence	soluble on expression in E. coli
MGSDKIHHHHHHMSKITFKDIYIDGNKITEDSRKAIYLLPPQPLKYASNTWIYKTMPTMNQWLKDIEVQKKMHLNQSSYHLSFSFPANEKIDEVLLEKIRELGFQIGVLELYVIEAKALKELSRKRDVDIQLVSSNNINDYLHVYDAFARPFGDSYANMVKQHIYSSYNLDDIERLVAYVNHQPVGIVDIIMTDKTIEIDGFGVLEEFQHQGIGSEIQAYVGRMANERPVILVADGKDTAKDMYLRQGYVYQGFKYHILKENI	not soluble
MGSDKIHHHHHHMSKIVVLGAGPAGCSAGYHLAKSGHKVMLIDKDCFPRDKTCGDGISLGSVQALSTMGIYPDDIKRLASEYAQIDGFLLGVSNEISHLCPTELKGYCIPRFVFDNLLYQKAINAGCVARTQRISDIEGYHQELYSDFDYIIDARGVYAGEANAIAIRAYWSIKVADFPKIYLSKAQIYFDKAFGVNGYGWIFPVAVDSELVKLNVGVGVWLDEYQKNNTNIIRLFNEFVQRNQATKQLLSLVVSQQKPKAYPLATAKRANTVSYGKVFKIGDAANLTDPLTGEGIANAILSGLYVTQAINMSTSPELASENWQRLYQLYFEPDLDAGLQIKSFRKFSFINKLLIWLMNRNKPFAEQVTYTFAGLIPYKKLLP	not soluble
MGSDKIHHHHHHMSKNDLADLLRVGPETTMGKFMRQYWLPAVLSHEVKADGDPVRLMLLGEKLIAFRDSSGRVGVLDHRCPHRCASLFVGRNEENGIRCVYHGWKFDVDGNCVDMPSVPARLDFKEKVHARAYKAVERNGLIWVYMGENQNNPPPLPAIEANMIPGSKIWCLQRQCNWLQALEGDIDTSHVGFLHVGALQPEDLPEGSPLRPTVLNRAPEYRVQNAEWGATYGAYRLAEDGRMSWRAAQFMFPFWTMTPNILFSTRAIARAWVPMDDTHVMLFDITGGVDEGNPFFTTKLKNGEPMYEKIRRKPNGTGWYDRWLPVDGLQNDWGIDREAQRNMIHYTGIDNPSMQDQAITESMGPITDHSFEHLAPTDQMIAFVRRRLTQALRNFRDDSAPAPCAFSPETYFGARSGAFWADPVVEFSTAYRVELEKAQRWPANPDGSAVEREPEVAR	not soluble
MGSDKIHHHHHHMSKPAITLWSDAHFFSPYVLSAWVALQEKGLSFHIKTIDLDSGEHLQPTWQGYGQTRRVPLLQIDDFELSESSAIAEYLEDRFAPPTWERIYPLDLENRARARQIQAWLRSDLMPIREERPTDVVFAGAKKAPLTAEGKASAEKLFAMAEHLLVLGQPNLFGEWCIADTDLALMINRLVLHGDEVPERLVDYATFQWQRASVQRFIALSAKQSG	not soluble
MGSDKIHHHHHHMSKYDVSISVIMGVYNQNDEKVLREAVDSILNQTFKDFEFIIYDDGSQPDAALILEKIKKIDPRIVLIGQEKNHGLAFSLNACIEQARGKYIARMDADDISDPNRLKVQYDFLEKNPQYSWCGCNARLLDENGIWGTREMPEAPAEKDYLKYSPYIHPTVMYRASLFEETDGYKVSEETLLCEDYEIFMRLRQMGKRGYNIQETLFTYREDSDSYRRRDFKRGINEAKVRFENFNKLHVLFPTGWVYVFRPIIACLVPREMIYILKRMKTRKKPWKKELESELIITGK	not soluble
MGSDKIHHHHHHMSLEKERIEKEHIEEMNQAKLRFFTNVSHEFRTPLTLIISQVELMLQKNTIPPSLHNSIFRIRKHAQQMKLLISELLDFRKFDQNYIQLKLSEQSLNTFLEEVYLSFSAYASQKSISYHLKLLEQDISIWIDDWQMRKVLFNLLSNAFKHVPDKGEISILTSTTPDQVVIAVKDSGNGISKEEQERIFDRFYQADNRNKAIHVGTGIGLALTKSIIQLHHGTIEVESELNEGSCFIVKLPKTRDCFEKDTEVVFLESPEKEPMVQENTIPDENFMKKDDSTFETPLIDEREGKRKVLLVEDNVELLQVLKEIFSSLYQVVTAANGEEGLKQAFAEVPDLIVSDVMMPVMTGTEMCLKIKNNINLCHIPVVLLTALDTVDQNIEGLRRGADDYITKPFNAKILITRCNNLIRNRLLMQSRFAKDQILEINLLAANPIDKGFLDRVIKVVDKHIDNEDFDIGMLCQELGMGRTLLHTKFKALTGMTPNEFILNHRLKIASLMLKNEPYLQVAEISDRLGFGSPRYFSRCFKNQYNVTPMEYRKGAKQENLK	not soluble
MGSDKIHHHHHHMSLIERAADKLVKNDMNGFMPGSVSQHDSREGIGPDSLFSSDGVPGKKTGHGRIIKEEVGADRINKAADTKKTVKRIEVDLENLHRKGVVTLHHTKSEIAEQFRLIKRPLLANAFNPDSGVKNGNLIMVTSSLSGEGKSFCSLNLAMSIAMEMDHRVLLVDADVARPSIPATLGFSPEEPGLLDMLRDSQLSISDVMMKTNIKKLTLIPAGRRHTHATELLASQSMHSILVELAQRYHDRVVIFDSPPLLLTSEARVLASQMGQIVLVVEAERTTQQTVKEALQQIEACDVVNLIYNKARAHGSTEYYGYY	not soluble
MGSDKIHHHHHHMSLKEEQVSIKQDPEQEERQHDQFNDVQIKQESQDHDGVDSQYTNGTQNDDSERFEAAESDVKVEPGLGMGITSSQSEKGQVLPDQPEIKFIRRQINGYVGFANLPKQWHRRSIKNGFSFNLLCVGPDGIGKTTLMKTLFNNDDIEANLVKDYEEELANDQEEEEGQGEGHENQSQEQRHKVKIKSYESVIEENGVKLNLNVIDTEGFGDFLNNDQKSWDPIIKEIDSRFDQYLDAENKINRHSINDKRIHACLYFIEPTGHYLKPLDLKFMQSVYEKCNLIPVIAKSDILTDEEILSFKKTIMNQLIQSNIELFKPPIYSNDDAENSHLSERLFSSLPYAVIGSNDIVENYSGNQVRGRSYPWGVIEVDNDNHSDFNLLKNLLIKQFMEELKERTSKILYENYRSSKLAKLGIKQDNSVFKEFDPISKQLEEKTLHEAKLAKLEIEMKTVFQQKVSEKEKKLQKSETELFARHKEMKEKLTKQLKALEDKKKQLELSINSASPNVNHSPVPTKKKGFLR	not soluble
MGSDKIHHHHHHMSLLALFSLFGCDNAANTATICKNNPELCDDLHRDSWCRYERADLIQKRYTLKNTPSPTGKQIYQHLINLENYSKCIELAAGVQHIMHPERTNDRVRAFGISAQNLAQLRETTKDNPDLYLSYYHWIRLNDQAALSRVIKAQQAGSIKDLEILASLASYYQKSDLDKAKALYLQLLDSADPDSFNPDWLLGLASIYHQQNDLEKTYLFSKANVLMTRNTASDAKMNALINGNQQLAHFLDEQADTLVEHLKNGDYASSEIRAQLNTSS	not soluble
MGSDKIHHHHHHMSLRPYREIARRKSRQIHVGSVAVGGDAPISVQTMTNTLTTDVKGTLEQIRRAADAGADLVRVSCPDEDSTKAFKQIAKESPVPLIADIHFHYKRGIEAAEAGAACLRINPGNIGSHERVREVVKAAKDHGCSMRIGVNAGSLDKHLLDKYGEPCPEALVESALEHAKLLEDNDFFEFKIAVKASDVFLAVAAYQGLAKACDYPLHLGITEAGGLIGGTVKSSIGIGSLLWQGIGDTLRVSLSADVTEEVKVGFEMLKALDLRHRGVRIVSCPSCARQGFDVIKTVETLENRLSHVRAPVTLSILGCVVNGPGEARETMVGITGGGSDNHKVYIGGSPDHNVDGKSMVDHIVELVEARAAEIEAAKAGGK	not soluble
MGSDKIHHHHHHMSMNHIRPWRNIERRKSRQIHVGNVPVGGDAPIAVQTMTNTLTTDIKGTIAQVQAAADAGADIVRVSVPDEASARALKEIVRESPVPIVADIHFHYKRGIEAAEAGAACLRINPGNIGDEKRVAEVIKAARDHNCSIRIGVNAGSLEKHLLEKYGEPCPDAMVESGLDHIKILQDHDFHEFKISVKASDVFMSAAAYQMLADATDAPIHLGITEAGGLMSGTIKSAIGLGQLLWMGIGDTLRVSLSADPVEEVKVGFEILKSLGLRHRGVNIISCPSCARQGFDVIKTVETLEERLEHIKTPMSLSIIGCVVNGPGEALMTDVGFTGGGAGSGMVYLAGKASHKMSNDQMIDHIVEEVEKKAAALDAQAAEDMKAAE	not soluble
MGSDKIHHHHHHMSMTDTTLAETEILLAQPRGFCAGVDRAIEIVERAIKLHGSPIYVRHEIVHNAYVVEDLRKKGAIFIERLEEVPPGNTVIFSAHGVSKAVRSEAEIRGLRVYDATCPLVTKVHIEVAKMRQDGFDIVMIGHKGHPEVEGTMGQAGEGMHLVEDIEDVQALQLADPERIAFVTQTTLSVDDAAQIIAALKAKYPSIREPKKQDICYATQNRQDAVKFMAPQCDVVIVVGSPNSSNSNRLRELAEKLGVPAYMVDSPDQIDPVWVEGKRRIGVTAGASAPEVLAQAVIARLRELGVRNVRALDGIEENIAFPLPRGLGLPA	not soluble
MGSDKIHHHHHHMSNKQHSTTITLPRGTLDLTYQTNAASGNNDLKESSRYQLEDLLDFAQRINPKRAFLFVSKVLGRHIPVAPSTMRDAFTDLANLVPDDLPEPILVIGMAETAVGLSAGVHQALQTRYPQALLLNSTRHAQHDNDNTNNLLTTFSEDHSHASQHLIYQSADKVTQAQLLASKTLIMVDDEASTGNTCVNVVTALRNAGLMQLQQVHLTTLVDWSLNQNQTDAKADDTIASRLPNIDFYRHHLLSGAWKWTDAPNPEPIIMPSVDTTEAGSQALAHTGHWGRFPTLDSTDGFANYLASFQTTFAIFDGQTAFDNAQLPQKILVLGSNEFVWLPFLLAEWLEQNADTVIDNQVIKFSALTRSPIALGGGISTMLSFHDNYGLGMTNFAYNVDPSNWDLIVLCVETSADGVDAMWQDLDNVLIVSPK	not soluble
MGSDKIHHHHHHMSNRIDHAKAAGAFISKTEHVAFHDRRLWDLREKRDAQAHGIAEWETMRELASGIKEHTLSNLSTYLEQFAAAAEANGVTVHWAATAEEHNALVHQLMSERGMTTLVKSKSMLTDECKMREYLEPRGITVMETDLGERIQQLDHQDPSHMVVPAVHKLRADVAELFGRTIGTDPKNSDIHYLAESQRMNTRPYFVREKTAGMTGCNFAVAETGTVVVCTNEGNADLSANVPPLHIASIGIEKLIPKVSDLGVFIRMLSRSALGSPITQYTSHFRAPRKGTEMHFILVDHGRSERLAMEDFWYSLKCIRCGACMNTCPVYRRSGGLSYGGTYSGPIGAIINPTFDLKRYSALPFASTLNGSCTNVCPVKINIHEQIYKWRTVIAGHHEVPFVKQEVLKMAGRLLASPTLYRATVSSMGSALRRLPNFVLYNPLNIWGKQRELPEAPKLTFHAWYKKNRGADHDNA	not soluble
MGSDKIHHHHHHMSNSELYYEELTDLSVRIALGIKNRTEPLDELSQAMTQLSQTNAIKGNAANAMKAYINEVHMTLIQTLELLLNNYEMALGKYVKGYLEVDSDESFKLIKEDFDAHKNNLSSHQSDFTSIGNKLKAISDEAEDIISLRGAGSKRLFNVAKDMGTMKEIVSNLNNKWNDYEQSDPGFNQVQDLIAQTTSLLKSTLSVPRGYSYSPGSFSKLISKDFVNAFEVNANYAQNPDNQKAFKANWNSISKNYTTDQKRMAEEAKEEAQKDGRIGLIWDAIASCCRNSACCDRSWSGFWCCSHCRWY	not soluble
MGSDKIHHHHHHMSPRLGDSAEMFVPQEQSGLNEAAPAAPRRPYRLSRRPEERVHVLGGTMDLVRPEEVFHFVTGKLEARQNAIVANHNLHSLYLIGKDHQIGQFYKAADLIEVDSVPLIFWARLVGRASRRFHRCTYLDWRDAFWALASEKNWKVFFVGGAPGVGEKAVERIRQDWPNARIETHHGYFDATQGSAENTAVVAKIRDYAPDIVLVGMGMPRQEIWTLENHQAYGPAATFTVGGAFDYEAGVQKAAPRWMGPLGMEWLFRLMSDPQRLFFRYCIEPWSLIGPACGDVVRALSRRSTTGESRAAENARWEQIRARNEAAR	not soluble
MGSDKIHHHHHHMSQQTGEASKIKGRFRNSHKVYGAGLGDLVGIIKAYLGAKRSAPSPKSAVPLQPITPAELARPQARLYRLGHSTVLMYLDGKWLLTDPVFSERASPFQWAGPKRFHQSPIAIEALPDIDGLILSHDHYDHLDTAAIKALAARVKHFYMPLGVGKRLIRLGIDKARITELDWWQSVQLGTIELTATPAQHFSGRGLFDRDATLWAGWAIHGEQARVFFSGDSGYFPGFAEIGERLGPFDVTLMETGAYNELWRDIHMMPEESLQAHLDVKGQLMVPIHNGTFDLALHDWFEPLERIRALAWDRSVKIATPIFGEALSLTLPGSGSDWWAQESAISTGVDAREKGRAPAAESSMVGIAES	not soluble
